Each block holds one binder with its values, some of them ahead of it.
Assays:
[1] = target: T1, c-Cbl (endogenous, Jurkat T-cell lysate) (human, UniProt P22681 1-906, tyrosine phosphorylated after anti-CD3 stimulation (sites not given)); assay: GST pull-down from Jurkat T-cell lysates, anti-c-Cbl immunoblot
T1 construct: also called 120 kDa phosphoprotein

[2] = target: T1, c-Cbl (endogenous, Jurkat T-cell lysate); assay: GST pull-down from unstimulated or anti-CD3 stimulated Jurkat lysates, anti-c-Cbl immunoblot
Protocol: Full-length MARS and MARS-v coding regions were fused in-frame to glutathione-S-transferase, in PGEX4T1. Recombinant GST fusion proteins were expressed in bacteria and purified on glutathione sepharose (GS) (Pharmacia). Jurkat T-cells (20×10⁶) were either left unstimulated (−) or stimulated with anti-CD3 (+); (anti-human CD3ε, clone UCGT1, Pharmingen) for 2 minutes. Cells were lysed in 1% NP-40 lysis buffer containing 1 mM sodium orthovanadate and complete protease inhibitors (Roche). Cell lysates were incubated with 4 μg of GS bound GST fusion proteins for 90 minutes at 4° C. and washed 4 times for 10 minutes with 0.1% NP-40 lysis buffer. Bound proteins were eluted by boiling in 2×SDS sample buffer and were resolved by SDS-PAGE on 10% polyacrylamide gels. Proteins were subsequently transferred to PVDF membrane (NEN) and blotted with anti-phosphotyrosine antibody (clone 4G10, UBI; top panel, FIG. 13). Membranes were stripped and reprobed with anti-c-Cbl antibody (Santa Cruz; middle panel, FIG. 13), and subsequently stained with Coomassie blue dye to check for equal loading of the respective fusions (bottom panel, FIG. 13).

binding result [1]: no binding
B1: GST-MARS delta-C (deletion of the carboxy-terminal 70 amino acids) (other, not shown: a dimerising Fc or GST; large carriers; small tags and cut ends)
chain: MGSLSSRGKTSSPSPSSSGPDQEPVSMQPERHKVTAVALGSFPAGEQARLSLRLGEPLTIISEDGDWWTVQSEVSGREYHMPSVYVAKVAHGWLYEGLSREKAEELLLLPGNPGGAFLIRESQTRRGCYSLSVRLSRPASWDRIRHYRIQRLDNGWLYISPRLTFPSLHALVEHYSELADGICCPLREP
modifications: N-terminal GST fusion from pGEX-4T1; GST letters are not given and are left out
notes: Residues 1-189 are worked out from the 259-residue entry; also called MARS AC mutant; C-terminal deletion mutant of MARS

B2: GST fusion of human MARS-v (MARS short isoform, splice variant) (other, not shown: a dimerising Fc or GST; large carriers; small tags and cut ends)
chain: MGSLPSRRKSLPSPSLSSSVQGQGPVTMEAERSKATAVALGSFPAGGPAELSLRLGEPLTIVSEDGDWWTVLSEVSGREYNIPSVHVAKVSHGWLYEGLSREKAEELLLLPGNPGGAFLIRESQTRRGSYSLSVRLSRPASWDRIRHYRIHCLDNGWLYISPRLTFPSLQALVDHYSEGWPAPWQGYTPTCDCAEDTTQLERAGQLPPVF
modifications: N-terminal GST fusion from pGEX-4T1; GST letters are not given and are left out
notes: The full-length MARS-v coding region (210 amino acids) was fused in-frame to GST; also called MARS-variant; MARS splice variant
binding result [2]: no binding (tested: 4 µg of GS bound GST fusion proteins)
